From the Immune Epitope Database (IEDB) come the findings set out here.

Among the targets are HLA-A*03:01; HLA-A*31:01; HLA-A*11:01; HLA-A*68:01; HLA-A*33:01.
Experiment in all cases: IEDB peptide-MHC binding, purified MHC/competitive/radioactivity; filed as Kd, often an IC50 or EC50 that approximates it; ≥ and ≤ were set here for values at or beyond the usual limits of such assays
Where [1] appears, read: source organism: Vaccinia virus WR.
Setting [2] is: source organism: SARS coronavirus Tor2.
[3] abbreviates: source organism: Mammarenavirus whitewaterense.
The mark [4] stands for this setting: source organism: Mammarenavirus machupoense.
The mark [5] stands for this setting: source organism: Mammarenavirus lassaense.
Where [6] appears, read: source organism: Lassa virus Josiah.

Regarding SACANGWIQY, the dissociation constant Kd was 1200 nM with HLA-A*03:01 (setting [1]); at least 55000 nM with HLA-A*31:01 (setting [1]); 59 nM with HLA-A*11:01 (setting [1]); 2890 nM in the assay with HLA-A*68:01 (setting [1]); at least 40500 nM with HLA-A*33:01 (setting [1]).

Regarding SFLRKIGDK, the Kd in the assay with HLA-A*03:01 (setting [1]) was 7600 nM; with HLA-A*31:01 (setting [1]) it was 247 nM; with HLA-A*11:01 (setting [1]), 3930 nM; with HLA-A*68:01 (setting [1]) it was at least 35000 nM; in the assay with HLA-A*33:01 (setting [1]), at least 26200 nM.

For the sequence SFNHVLKRK, the dissociation constant (Kd) with HLA-A*03:01 (setting [2]) is 111 nM; with HLA-A*31:01 (setting [2]) it was 375 nM; with HLA-A*11:01 (setting [2]), 1790 nM; with HLA-A*68:01 (setting [2]), at least 24700 nM; with HLA-A*33:01 (setting [2]), 6790 nM.

As for SINKVYGRY, the Kd in the assay with HLA-A*03:01 (setting [1]) is 526 nM; with HLA-A*31:01 (setting [1]), 140 nM; in the assay with HLA-A*11:01 (setting [1]), 195 nM; in the assay with HLA-A*68:01 (setting [1]) it was 1990 nM; with HLA-A*33:01 (setting [1]) it was at least 77700 nM.

Turning to SLSPNDTTWI, the equilibrium dissociation constant (Kd) was at least 34600 nM with HLA-A*03:01 (setting [3]); at least 32300 nM with HLA-A*31:01 (setting [3]); at least 69700 nM in the assay with HLA-A*11:01 (setting [3]); at least 70100 nM with HLA-A*68:01 (setting [3]); at least 60700 nM in the assay with HLA-A*33:01 (setting [3]).

With SLVENNFFTK, the Kd came out at 229 nM with HLA-A*03:01 (setting [1]); 388 nM with HLA-A*31:01 (setting [1]); 9.71 nM with HLA-A*11:01 (setting [1]); 119 nM with HLA-A*68:01 (setting [1]); 704 nM with HLA-A*33:01 (setting [1]).

With SSFDYCSTNH, the Kd with HLA-A*03:01 (setting [4]) was found to be 17100 nM; with HLA-A*31:01 (setting [4]), 6320 nM; with HLA-A*11:01 (setting [4]) it was 1890 nM; with HLA-A*68:01 (setting [4]) it was 249 nM; with HLA-A*33:01 (setting [4]), 15600 nM.

Turning to STQQNKLVIR, the dissociation constant Kd in the assay with HLA-A*03:01 (setting [1]) is 17900 nM; with HLA-A*31:01 (setting [1]), 154 nM; in the assay with HLA-A*11:01 (setting [1]) it was 2240 nM; with HLA-A*68:01 (setting [1]), 631 nM; with HLA-A*33:01 (setting [1]) it was 4470 nM.

As to SVANGVPVH, the Kd was 2270 nM with HLA-A*03:01 (setting [5]); at least 30300 nM with HLA-A*31:01 (setting [5]); 9780 nM with HLA-A*11:01 (setting [5]); 8070 nM in the assay with HLA-A*68:01 (setting [5]); at least 77700 nM in the assay with HLA-A*33:01 (setting [5]).

In the case of TAVAKCNEKH, the dissociation constant (Kd) with HLA-A*03:01 (setting [6]) is at least 70000 nM; with HLA-A*31:01 (setting [6]) it was at least 40100 nM; with HLA-A*11:01 (setting [6]), at least 69700 nM; in the assay with HLA-A*68:01 (setting [6]), at least 70100 nM; with HLA-A*33:01 (setting [6]) it was at least 61800 nM.

On to TFQLLNMIK, for which the dissociation constant Kd worked out at 20.8 nM with HLA-A*03:01 (setting [1]); 326 nM in the assay with HLA-A*31:01 (setting [1]); 19.5 nM with HLA-A*11:01 (setting [1]); 11.5 nM in the assay with HLA-A*68:01 (setting [1]); 102 nM in the assay with HLA-A*33:01 (setting [1]).

In the case of TIREFPRKDK, the Kd is 13100 nM in the assay with HLA-A*03:01 (setting [1]); 295 nM in the assay with HLA-A*31:01 (setting [1]); 16200 nM with HLA-A*11:01 (setting [1]); 7280 nM with HLA-A*68:01 (setting [1]); at least 40900 nM in the assay with HLA-A*33:01 (setting [1]).

Turning to TLAILTALR, the Kd was found to be 3670 nM with HLA-A*03:01 (setting [2]); 326 nM with HLA-A*31:01 (setting [2]); 4460 nM in the assay with HLA-A*11:01 (setting [2]); 117 nM with HLA-A*68:01 (setting [2]); 833 nM with HLA-A*33:01 (setting [2]).

With TLEEAKTALK, the equilibrium dissociation constant (Kd) was 1350 nM with HLA-A*03:01 (setting [2]); at least 47600 nM with HLA-A*31:01 (setting [2]); 4630 nM with HLA-A*11:01 (setting [2]); at least 10000 nM in the assay with HLA-A*68:01 (setting [2]); at least 70000 nM with HLA-A*33:01 (setting [2]).

With TLNHVLALKY, the Kd is 168 nM with HLA-A*03:01 (setting [1]); at least 69100 nM in the assay with HLA-A*31:01 (setting [1]); 1150 nM with HLA-A*11:01 (setting [1]); 13200 nM with HLA-A*68:01 (setting [1]); at least 52700 nM with HLA-A*33:01 (setting [1]).

TQVYIAVNDK: the Kd is 186 nM with HLA-A*03:01 (setting [2]); 6720 nM in the assay with HLA-A*31:01 (setting [2]); 720 nM with HLA-A*11:01 (setting [2]); 1330 nM with HLA-A*68:01 (setting [2]); 9360 nM with HLA-A*33:01 (setting [2]).

Take TTYMDTFFR: the dissociation constant (Kd) in the assay with HLA-A*03:01 (setting [1]) is 10.4 nM; with HLA-A*31:01 (setting [1]), 16.6 nM; with HLA-A*11:01 (setting [1]) it was 1.98 nM; with HLA-A*68:01 (setting [1]) it was 0.0507 nM; in the assay with HLA-A*33:01 (setting [1]), 10.6 nM.

VAGTGVQFY: the Kd with HLA-A*03:01 (setting [1]) is 7270 nM; in the assay with HLA-A*31:01 (setting [1]), at least 53900 nM; with HLA-A*11:01 (setting [1]) it was at least 26500 nM; in the assay with HLA-A*68:01 (setting [1]) it was at least 77700 nM; in the assay with HLA-A*33:01 (setting [1]), at least 77700 nM.

Regarding VLFSIFYKDY, the Kd in the assay with HLA-A*03:01 (setting [1]) is 668 nM; with HLA-A*31:01 (setting [1]), 1200 nM; in the assay with HLA-A*11:01 (setting [1]), 972 nM; with HLA-A*68:01 (setting [1]), 1160 nM; with HLA-A*33:01 (setting [1]), 3090 nM.

Consider VQIGEYTFEK, for which the Kd with HLA-A*03:01 (setting [2]) worked out at 221 nM; in the assay with HLA-A*31:01 (setting [2]) it was 1660 nM; with HLA-A*11:01 (setting [2]) it was 22 nM; in the assay with HLA-A*68:01 (setting [2]), 350 nM; with HLA-A*33:01 (setting [2]) it was 11200 nM.

Consider VQSKMSDVK, for which the Kd is 4160 nM in the assay with HLA-A*03:01 (setting [2]); 7070 nM in the assay with HLA-A*31:01 (setting [2]); 198 nM in the assay with HLA-A*11:01 (setting [2]); at least 53500 nM in the assay with HLA-A*68:01 (setting [2]); at least 25000 nM with HLA-A*33:01 (setting [2]).

For VSTCFKLMLK, the equilibrium dissociation constant (Kd) with HLA-A*03:01 (setting [2]) amounted to 112 nM; with HLA-A*31:01 (setting [2]) it was 806 nM; in the assay with HLA-A*11:01 (setting [2]) it was 15.3 nM; with HLA-A*68:01 (setting [2]), 472 nM; with HLA-A*33:01 (setting [2]), 5700 nM.

On to VTYTEIEPK, for which the dissociation constant Kd with HLA-A*03:01 (setting [2]) is 31.2 nM; with HLA-A*31:01 (setting [2]), 1360 nM; with HLA-A*11:01 (setting [2]), 7.49 nM; with HLA-A*68:01 (setting [2]), 147 nM; in the assay with HLA-A*33:01 (setting [2]), at least 25700 nM.

As to YLCGFIKQK, the equilibrium dissociation constant (Kd) in the assay with HLA-A*03:01 (setting [2]) is 511 nM; in the assay with HLA-A*31:01 (setting [2]) it was 3430 nM; with HLA-A*11:01 (setting [2]), 1650 nM; in the assay with HLA-A*68:01 (setting [2]), 6000 nM; in the assay with HLA-A*33:01 (setting [2]), at least 46700 nM.
